Assay results: patent US20210309746A1 (COMPASS THERAPEUTICS, published 2021)
Numbering of substitutions follows the chain as printed.

B1: anti-CD277 monoclonal antibody mAb1 (antibody, V domains shown)
VH: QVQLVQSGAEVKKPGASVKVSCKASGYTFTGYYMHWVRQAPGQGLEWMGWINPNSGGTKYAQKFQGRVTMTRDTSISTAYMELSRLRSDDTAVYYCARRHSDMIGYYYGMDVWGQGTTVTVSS
VL: DIQMTQSPSSVSASVGDRVTITCRASQGISSWLAWYQQKPGKAPKLLIYAASSLQSGVPSRFSGSGSGTDFTLTISSLQPEDFATYYCQQATDFPPTFGGGTKVEIKR
B2: anti-CD277 antibody mAb11 (antibody, human IgG1, kappa, N297A, V domains shown)
VH: QVQLVQSGAEVKKPGASVKVSCKASGYTFSNYYIHWVRQAPGQGLEWMGWINANSGGTKYAQKFQGRVTMTRDTSISTAYMELSRLRSDDTAVYYCARRHSDMIGYYYGMDVWGQGTTVTVSS
VL: B1 VL with V11L, G28S, W32Y, A34N, T92N, D93T, G100Q, K103R, V104L
B3: anti-CD277 antibody mAb5 (antibody, human IgG1, kappa, N297A, V domains shown)
VH: B2 VH
VL: B1 VL
B4: anti-CD277 antibody mAb8 (antibody, human IgG1, kappa, N297A, V domains shown)
VH: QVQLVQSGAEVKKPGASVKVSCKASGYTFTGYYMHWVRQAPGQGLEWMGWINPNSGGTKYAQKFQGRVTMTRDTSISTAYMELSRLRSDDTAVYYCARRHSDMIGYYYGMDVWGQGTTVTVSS
VL: DIQMTQSPSSLSASVGDRVTITCRASQSIDRYLNWYQQKPGKAPKLLIYAASRLQSGVPSRFSGSGSGTDFTLTISSLQPEDFATYYCQQANSFPPTFGQGTRLEIKR
B5: anti-CD277 antibody mAb3 (antibody, human IgG1, kappa, N297A, V domains shown)
VH: B2 VH with S30N, N31G, A53S
VL: B1 VL
B6: anti-CD277 antibody mAb7 (antibody, human IgG1, kappa, N297A, V domains shown)
VH: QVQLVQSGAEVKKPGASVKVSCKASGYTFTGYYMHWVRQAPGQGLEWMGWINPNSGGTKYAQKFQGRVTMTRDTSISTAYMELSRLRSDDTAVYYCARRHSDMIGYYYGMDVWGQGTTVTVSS
VL: B4 VL with S28D, D30S, R31V, A50T, R53S, Q100G, R103K, L104V, E105D
B7: anti-CD277 antibody mAb6 (antibody, human IgG1, kappa, N297A, V domains shown)
VH: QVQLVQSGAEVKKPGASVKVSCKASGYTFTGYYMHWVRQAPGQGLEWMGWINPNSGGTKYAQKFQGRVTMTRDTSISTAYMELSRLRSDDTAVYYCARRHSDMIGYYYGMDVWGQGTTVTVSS
VL: B4 VL with D30S, R31L, Y32F, A50T, R53S, Q100G, R103K, L104V, E105D
B8: anti-CD277 antibody mAb10 (antibody, human IgG1, kappa, N297A, V domains shown)
VH: B2 VH with S30T, I34M, A53V, G57V
VL: B4 VL with D30S, R31S, R53S, S93T
B9: anti-CD277 antibody mAb4 (antibody, human IgG1, kappa, N297A, V domains shown)
VH: B2 VH with S30T, I34M, A53V, G57V
VL: B1 VL
B10: anti-CD277 antibody mAb9 (antibody, V domains shown)
VH: B2 VH with S30N, N31G, A53S
VL: B4 VL with M4L, D30S, R31S, A43V, R53T, Y87S, A91T, R103K, L104V
B11: anti-CD277 antibody mAb2 (antibody, human IgG1, kappa, N297A, V domains shown)
VH: B2 VH
VL: B4 VL

Each binder was assayed against T1, human CD277 (human, UniProt O00481 30-254, limits assumed) (assay: SPRi (Carterra MX96), antibody printed on chip, his-tagged antigen injected, 1:1 fit).
T1 construct: The SPR method text speaks of 'purified recombinant his tagged human CD137', apparently an error for CD277; also called BTN3A1; human CD277 polypeptides
T1 sequence (O00481 30-254 limits assumed): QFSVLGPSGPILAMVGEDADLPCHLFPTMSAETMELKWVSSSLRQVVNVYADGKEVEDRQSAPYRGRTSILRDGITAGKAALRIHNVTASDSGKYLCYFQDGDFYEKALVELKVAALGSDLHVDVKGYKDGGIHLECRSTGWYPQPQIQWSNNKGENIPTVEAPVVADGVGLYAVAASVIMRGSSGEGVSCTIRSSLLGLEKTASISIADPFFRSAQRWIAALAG
Description: The resulting anti-CD277 antibodies from different selection rounds were plotted on kd/kₐ double log plots. Apparent association and dissociation kinetic rate constants (kₐ and kd values) were determined on an SPRi reader (MX96, Carterra) in a running buffer of PBS-C 0.01%. […] antibodies were covalently printed on a Carboxymethyldextran hydrogel 50 L chip (Xantec bioanalytics) on a CFM (Carterra). Freshly mixed activating reagents ([…] 0.4 M EDC and […] 0.1 M sulfo-NHS in H2O) were used to activate the surface of the SPR substrate for 7 minutes. Antibodies at 10 mg/ml in acetic acid buffer pH 4.5 were used for printing for 15 minutes. The printed chip was then quenched on SPRi reader (MX96, Carterra) with 1 M ethanolamine for 15 minutes. For kinetics analysis, purified recombinant his tagged human […] (0, 2.05, 5.12, 12.8, 32, 80, 200, 500 nM) was injected sequentially. For each concentration, there was 5 minutes of association followed by 10 minutes of dissociation. Data were processed and analyzed in SPR Inspection Tool and Scrubber softwares. The kinetic data were referenced with the interstitial reference spots and double-referenced to a buffer cycle, and then fit globally to a 1:1 binding model to determine their apparent association and dissociation kinetic rate constants (kₐ and kd values). The ratio kd/kₐ was used to derive the KD value of each antigen/mAb interaction, i.e. KD=kd/kₐ.

| Kd | koff | kon | Binder |
| --- | --- | --- | --- |
| 16.7 nM | 0.000384 s⁻¹ | 23000 M⁻¹ s⁻¹ | B1 |
| 5.13 nM | 9.36e-05 s⁻¹ | 18200 M⁻¹ s⁻¹ | B2 |
| 12.9 nM | 0.00025 s⁻¹ | 19300 M⁻¹ s⁻¹ | B3 |
| 6.05 nM | 0.000138 s⁻¹ | 22800 M⁻¹ s⁻¹ | B4 |
| 6.71 nM | 0.000121 s⁻¹ | 18100 M⁻¹ s⁻¹ | B5 |
| 6.69 nM | 0.000159 s⁻¹ | 23700 M⁻¹ s⁻¹ | B6 |
| 4.37 nM | 0.000118 s⁻¹ | 27100 M⁻¹ s⁻¹ | B7 |
| 4.69 nM | 8.03e-05 s⁻¹ | 17100 M⁻¹ s⁻¹ | B8 |
| 10.1 nM | 0.00019 s⁻¹ | 18800 M⁻¹ s⁻¹ | B9 |
| 6.82 nM | 9.71e-05 s⁻¹ | 14200 M⁻¹ s⁻¹ | B10 |
| 2.68 nM | 4.89e-05 s⁻¹ | 18300 M⁻¹ s⁻¹ | B11 |

Each binder was assayed against human BTN3A1 ectopically expressed on K32 cells (human, UniProt O00481 30-513) (assay: cell-based or functional assay).
human BTN3A1 ectopically expressed on K32 cells, sequence (O00481 30-513 limits assumed): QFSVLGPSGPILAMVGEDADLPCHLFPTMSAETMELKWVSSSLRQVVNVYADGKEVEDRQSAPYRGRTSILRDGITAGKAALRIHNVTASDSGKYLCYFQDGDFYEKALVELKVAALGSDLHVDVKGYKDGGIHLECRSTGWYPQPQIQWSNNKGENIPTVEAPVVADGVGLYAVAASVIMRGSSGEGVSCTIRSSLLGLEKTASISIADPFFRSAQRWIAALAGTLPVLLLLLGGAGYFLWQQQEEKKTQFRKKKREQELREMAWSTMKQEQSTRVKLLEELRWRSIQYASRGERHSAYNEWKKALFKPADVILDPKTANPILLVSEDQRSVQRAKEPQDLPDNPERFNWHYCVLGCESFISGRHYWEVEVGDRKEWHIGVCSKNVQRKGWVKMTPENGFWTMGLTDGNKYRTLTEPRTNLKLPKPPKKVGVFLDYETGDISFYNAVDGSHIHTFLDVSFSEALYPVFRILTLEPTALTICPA

| IFN-γ release by purified CD4+ T cells stimulated with BTN-K32 cells | IFN-γ release by purified CD8+ T cells stimulated with BTN-K32 cells | proliferation of gated CD4+ T cells within total PBMCs co-cultured with anti-CD3/anti-CD28 coated BTN-K32 cells | proliferation of gated CD8+ T cells within total PBMCs co-cultured with anti-CD3/anti-CD28 coated BTN-K32 cells | proliferation of purified CD4+ T cells stimulated with BTN-K32 cells | proliferation of purified CD8+ T cells stimulated with BTN-K32 cells | Binder |
| --- | --- | --- | --- | --- | --- | --- |
| ≥ 2 fold | ~1300 fold | ≥ 1.5 fold | ≥ 1.5 fold | ≥ 1.5 fold | ≥ 2 fold | B1 |
